Values quoted from earlier work in article PMC3901153.

Columns and labels:
RAGE (Homo sapiens) = RAGE (Homo sapiens) (UniProt Q15109)
TLR4 (Homo sapiens) = TLR4 (Homo sapiens) (UniProt O00206)
Chain of UniProt O00206 (O00206 24-839): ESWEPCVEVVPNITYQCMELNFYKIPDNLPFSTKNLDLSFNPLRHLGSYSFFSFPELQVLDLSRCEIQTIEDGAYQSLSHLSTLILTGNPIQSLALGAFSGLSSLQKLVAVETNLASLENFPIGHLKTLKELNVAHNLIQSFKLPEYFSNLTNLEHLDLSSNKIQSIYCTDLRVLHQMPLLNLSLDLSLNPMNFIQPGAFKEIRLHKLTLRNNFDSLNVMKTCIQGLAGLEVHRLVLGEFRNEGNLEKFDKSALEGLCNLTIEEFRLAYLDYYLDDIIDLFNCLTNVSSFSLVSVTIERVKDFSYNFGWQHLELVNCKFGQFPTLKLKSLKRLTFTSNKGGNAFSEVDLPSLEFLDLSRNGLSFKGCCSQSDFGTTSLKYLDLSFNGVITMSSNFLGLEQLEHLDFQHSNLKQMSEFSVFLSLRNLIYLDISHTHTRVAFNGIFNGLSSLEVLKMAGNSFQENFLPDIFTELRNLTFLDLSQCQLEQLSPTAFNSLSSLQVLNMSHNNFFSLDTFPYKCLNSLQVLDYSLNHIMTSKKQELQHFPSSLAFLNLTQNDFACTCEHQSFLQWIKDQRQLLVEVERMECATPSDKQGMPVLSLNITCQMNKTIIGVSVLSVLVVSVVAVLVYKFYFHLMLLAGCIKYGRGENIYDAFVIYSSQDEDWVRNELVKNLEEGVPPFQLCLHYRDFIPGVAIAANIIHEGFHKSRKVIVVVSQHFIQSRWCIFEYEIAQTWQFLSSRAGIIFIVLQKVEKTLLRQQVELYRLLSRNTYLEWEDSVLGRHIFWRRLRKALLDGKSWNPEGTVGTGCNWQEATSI

Chain of UniProt Q15109 (Q15109 23-404): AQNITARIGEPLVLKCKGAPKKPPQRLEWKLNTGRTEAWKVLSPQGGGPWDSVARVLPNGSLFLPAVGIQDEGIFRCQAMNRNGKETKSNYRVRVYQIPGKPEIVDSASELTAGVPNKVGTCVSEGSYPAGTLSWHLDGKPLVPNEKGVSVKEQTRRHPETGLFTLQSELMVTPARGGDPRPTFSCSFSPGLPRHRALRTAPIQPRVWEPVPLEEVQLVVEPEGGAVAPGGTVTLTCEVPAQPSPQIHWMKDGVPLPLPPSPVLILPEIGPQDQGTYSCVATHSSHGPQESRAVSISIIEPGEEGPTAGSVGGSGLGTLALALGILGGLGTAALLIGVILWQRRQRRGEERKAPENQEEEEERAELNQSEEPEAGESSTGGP

Kd (RAGE (Homo sapiens)): 0.01 µM
Kd (TLR4 (Homo sapiens)): 1.5 µM
Substance: HMGB1 (from UniProt P09429)
